In patent US20240158489A1 (published 2024):

T1: rat ANG2 (rat, UniProt O35462 19-496)
T1 chain: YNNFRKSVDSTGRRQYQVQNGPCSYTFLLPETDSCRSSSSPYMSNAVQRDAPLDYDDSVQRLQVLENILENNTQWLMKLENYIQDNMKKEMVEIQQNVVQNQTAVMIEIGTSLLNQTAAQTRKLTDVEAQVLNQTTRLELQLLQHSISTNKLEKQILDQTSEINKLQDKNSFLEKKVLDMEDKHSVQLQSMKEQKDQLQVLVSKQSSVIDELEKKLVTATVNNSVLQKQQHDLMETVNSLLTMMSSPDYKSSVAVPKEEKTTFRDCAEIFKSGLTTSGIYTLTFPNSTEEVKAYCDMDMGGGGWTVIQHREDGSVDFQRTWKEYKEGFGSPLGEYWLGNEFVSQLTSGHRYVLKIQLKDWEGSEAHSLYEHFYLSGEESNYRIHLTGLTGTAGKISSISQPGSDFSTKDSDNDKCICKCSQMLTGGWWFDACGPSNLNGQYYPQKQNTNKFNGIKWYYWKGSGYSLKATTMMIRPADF

T2: rabbit ANG2 (rabbit, UniProt G1T9B3 19-496)
T2 chain: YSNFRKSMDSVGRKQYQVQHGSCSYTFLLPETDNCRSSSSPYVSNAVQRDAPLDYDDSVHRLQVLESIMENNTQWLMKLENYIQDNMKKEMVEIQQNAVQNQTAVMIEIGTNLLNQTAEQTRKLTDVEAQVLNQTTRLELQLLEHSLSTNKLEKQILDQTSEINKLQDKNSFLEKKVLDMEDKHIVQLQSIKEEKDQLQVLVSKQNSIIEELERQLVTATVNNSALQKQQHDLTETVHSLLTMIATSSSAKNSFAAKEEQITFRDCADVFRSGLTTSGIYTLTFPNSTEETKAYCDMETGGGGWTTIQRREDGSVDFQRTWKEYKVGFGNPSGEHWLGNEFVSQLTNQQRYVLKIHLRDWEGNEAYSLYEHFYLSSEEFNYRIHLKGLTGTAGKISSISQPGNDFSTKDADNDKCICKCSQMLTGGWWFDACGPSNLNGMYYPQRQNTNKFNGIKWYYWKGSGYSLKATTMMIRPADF

B1: anti-ANG-2×VEGF bispecific antibody ABP201 (bispecific antibody)
heavy: EVQLLESGGGLVQPGGSLRLSCAASGFTFSWYEMYWVRQAPGKGLEWVSSISPSGGWTMYADSVKGRFTISRDNSKNTLYLQMNSLRAEDTAVYYCATPLYSSDYLSAGDIWGQGTMVTVSSASTKGPSVFPLAPSSKSTSGGTAALGCLVKDYFPEPVTVSWNSGALTSGVHTFPAVLQSSGLYSLSSVVTVPSSSLGTQTYICNVNHKPSNTKVDKRVEPKSCDKTHTCPPCPAPEAAGGPSVFLFPPKPKDTLMISRTPEVTCVVVDVSHEDPEVKFNWYVDGVEVHNAKTKPREEQYNSTYRVVSVLTVLHQDWLNGKEYKCKVSNKALPAPIEKTISKAKGQPREPQVYTLPPSREEMTKNQVSLTCLVKGFYPSDIAVEWESNGQPENNYKTTPPVLDSDGSFFLYSKLTVDKSRWQQGNVFSCSVMHEALHNAYTQKSLSLSPGKGGGGSGGGGSEIVLTQSPGTLSLSPGERATLSCRASQSITGSYLAWYQQKPGQAPRLLITGASSWATGIPDRFSGSGSGTDFTLTISRLEPEDFAVYYCQQYSSSPITFGCGTRLEIKGGGGSGGGGSGGGGSGGGGSQVQLVESGGGVVQPGRSLRLSCAASGFTFTNYGMHWVRQAPGKCLEWVAVISHEGNNKYYVDSVKGRFTISRDNSKNTLYLQMNSLRAEDTAVYYCAREGIDFWSGLNWFDPWGQGTLVTVS
light: EIVLTQSPATLSLSPGERATLSCRASQSVHSSYLAWYQQKPGQAPRLLIYGASSRATGIPDRFSGSGSGTDFTLTISRLEPEDFAVYYCQQSYRTPSFGQGTRLEIKRTVAAPSVFIFPPSDEQLKSGTASVVCLLNNFYPREAKVQWKVDNALQSGNSQESVTEQDSKDSTYSLSSTLTLSKADYEKHKVYACEVTHQGLSSPVTKSFNRGEC
B2: ABP 201 (bispecific antibody)
heavy: B1 heavy
light: B1 light

How the values were obtained:
Assay in all cases: -; FIG. 2B
rat ANG2 = target: T1, rat ANG2
rabbit ANG2 = target: T2, rabbit ANG2
Rabbit VEGF 165 = target: Rabbit VEGF 165
Rat VEGF164 = target: Rat VEGF164
Cyno ANG-2 = Cyno ANG-2 (monkey)

Row | Binder | Kd (rat ANG2) [nM] | Kd (rabbit ANG2) [nM] | Kd (Rabbit VEGF 165) [nM] | Kd (Rat VEGF164) [nM] | Kd (Cyno ANG-2) [nM]
1 | B1 | 40.5 | 30.4 |  |  | 
2 | B2 |  |  | 2.06 | 0.62 | 29.8
